Non-standard residues stand in square brackets, D forms with d.
Target: human wild-type p53 (full-length, in vitro translated from plasmid pGEMhump53wt) (human, UniProt P04637 1-393)
Assay: cell-based or functional assay

human wild-type p53 (full-length, in vitro translated from plasmid pGEMhump53wt), sequence (P04637 whole entry): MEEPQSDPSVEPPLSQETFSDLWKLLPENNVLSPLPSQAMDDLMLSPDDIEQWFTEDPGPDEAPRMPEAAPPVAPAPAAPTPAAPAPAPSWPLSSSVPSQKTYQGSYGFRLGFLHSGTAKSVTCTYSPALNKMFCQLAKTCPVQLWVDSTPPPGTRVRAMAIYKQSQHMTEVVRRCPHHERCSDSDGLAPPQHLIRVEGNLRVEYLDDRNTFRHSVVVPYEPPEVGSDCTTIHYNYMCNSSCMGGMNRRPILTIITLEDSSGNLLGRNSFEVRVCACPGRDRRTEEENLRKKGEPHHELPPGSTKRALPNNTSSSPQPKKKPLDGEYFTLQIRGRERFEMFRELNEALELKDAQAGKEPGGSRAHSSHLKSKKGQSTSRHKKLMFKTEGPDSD

activation of p53 DNA binding (gel shift), relative to 0.05 mM peptide p53p363-373: ~2 times
B1: cyclic peptide c[SRHKKa] (peptide)
peptide: cyclo(SRHKK[dA])
SMILES: C[C@H]1NC(=O)[C@H](CCCCN)NC(=O)[C@H](CCCCN)NC(=O)[C@H](Cc2c[nH]cn2)NC(=O)[C@H](CCCNC(=N)N)NC(=O)[C@H](CO)NC1=O

— patent publication US20030171537A1 (Bayer, published 2003)
